Source: patent publication US20240124553A1 (WASHINGTON UNIVERSITY, published 2024)

Legend:
Experiment in all cases: flow cytometry, transfected 293T cells
[1] = molecular target: T1, CHIKV E2-E1 envelope glycoproteins (strain S27), E2 mutant D132A (chikungunya virus strain S27, UniProt Q8JUX5 1-1248; Q8JUX5 810-1248)
T1 construct: whole, on cells; E2 domain A

[2] = molecular target: T2, CHIKV E2-E1 envelope glycoproteins (strain S27), E2 mutant R36A (chikungunya virus strain S27, UniProt Q8JUX5 1-1248; Q8JUX5 810-1248)
T2 construct: whole, on cells; E2 domain A

[3] = molecular target: T3, CHIKV E2-E1 envelope glycoproteins (strain S27), E2 mutant K66A (chikungunya virus strain S27, UniProt Q8JUX5 1-1248; Q8JUX5 810-1248)
T3 construct: whole, on cells; E2 domain A

[4] = molecular target: T4, CHIKV E2-E1 envelope glycoproteins (strain S27), E2 mutant A76S (chikungunya virus strain S27, UniProt Q8JUX5 1-1248; Q8JUX5 810-1248)
T4 construct: whole, on cells; E2 domain A

[5] = molecular target: T5, CHIKV E2-E1 envelope glycoproteins (strain S27), E2 mutant R104A (chikungunya virus strain S27, UniProt Q8JUX5 1-1248; Q8JUX5 810-1248)
T5 construct: whole, on cells; E2 domain A

[6] = molecular target: T6, CHIKV E2-E1 envelope glycoproteins (strain S27), E2 mutant F115A (chikungunya virus strain S27, UniProt Q8JUX5 1-1248; Q8JUX5 810-1248)
T6 construct: whole, on cells; E2 domain A

[7] = molecular target: T7, CHIKV E2-6K-E1 envelope proteins (strain S27) with E2 I217A (Chikungunya virus strain S27, UniProt Q8JUX5 1-1248; Q8JUX5 810-1248)
T7 construct: whole, on cells

Row | Binder | Binding Reactivity (% WT) [1] [% WT] | Binding Reactivity (% WT) [2] [% WT] | Binding Reactivity (% WT) [3] [% WT] | Binding Reactivity (% WT) [4] [% WT] | Binding Reactivity (% WT) [5] [% WT] | Binding Reactivity (% WT) [6] [% WT] | Binding Reactivity (% WT) [7] [% WT]
1 | Mxra8-Fc (mouse Mxra8 extracellular domain fused to mouse IgG2b Fc) (Fc fusion) SGPSGTAAASSSLVSESVVSLAAGTQAVLRCQSPRMVWTQDRLHDRQRVVHWDLSGGPGSQRRRLVDMYSAGEQRVYEPRDRDRLLLSPSAFHDGNFSLLIRAVDRGDEGVYTCNLHHHYCHLDESLAVRLEVTEDPLLSRAYWDGEKEVLVVAHGAPALMTCINRAHVWTDRHLEEAQQVVHWDRQLPGVSHDRADRLLDLYASGERRAYGPPFLRDRVSVNTNAFARGDFSLRIDELERADEGIYSCHLHHHYCGLHERRVFHLQVTEPAFEPPARASPGNGSGHSSAPSPDPTLTRGHSIINVIVPEDHTHPSGPISTINPCPPCKECHKCPAPNLEGGPSVFIFPPNIKDVLMISLTPKVTCVVVDVSEDDPDVQISWFVNNVEVHTAQTQTHREDYNSTIRVVSTLPIQHQDWMSGKEFKCKVNNKDLPSPIERTISKIKGLVRAPQVYILPPPAEQLSRKDVSLTCLVVGFNPGDISVEWTSNGHTEENYKDTAPVLDSDGSYFIYSKLNMKTSKWEKTDSFSCNVRHEGLKNYYLKKTISRSPGK [Mxra8-Fc (mouse Mxra8 extracellular domain fused to mouse IgG2b Fc), listing 1 of 2 here] | 105 | 68.3 | 93.1 | 85 | 49.9 | 3.3 | –
2 | Mxra8-Fc (mouse Mxra8 extracellular domain fused to mouse IgG2b Fc) (Fc fusion) SGPSGTAAASSSLVSESVVSLAAGTQAVLRCQSPRMVWTQDRLHDRQRVVHWDLSGGPGSQRRRLVDMYSAGEQRVYEPRDRDRLLLSPSAFHDGNFSLLIRAVDRGDEGVYTCNLHHHYCHLDESLAVRLEVTEDPLLSRAYWDGEKEVLVVAHGAPALMTCINRAHVWTDRHLEEAQQVVHWDRQLPGVSHDRADRLLDLYASGERRAYGPPFLRDRVSVNTNAFARGDFSLRIDELERADEGIYSCHLHHHYCGLHERRVFHLQVTEPAFEPPARASPGNGSGHSSAPSPDPTLTRGHSIINVIVPEDHTHPSGPISTINPCPPCKECHKCPAPNLEGGPSVFIFPPNIKDVLMISLTPKVTCVVVDVSEDDPDVQISWFVNNVEVHTAQTQTHREDYNSTIRVVSTLPIQHQDWMSGKEFKCKVNNKDLPSPIERTISKIKGLVRAPQVYILPPPAEQLSRKDVSLTCLVVGFNPGDISVEWTSNGHTEENYKDTAPVLDSDGSYFIYSKLNMKTSKWEKTDSFSCNVRHEGLKNYYLKKTISRSPGK [Mxra8-Fc (mouse Mxra8 extracellular domain fused to mouse IgG2b Fc), listing 2 of 2 here] | – | – | – | – | – | – | 12.3
